PMC6565432

Target: VAPB (endogenous, COS-7 cells) (African green monkey (endogenous in COS-7))
Test: proximity ligation

PLA signals per cell (PLA signals per cell): 5.6 | PLA signals per cell (single plane) (PLA signals per cell): 10.4 | PLA signals per cell (z-stack) (PLA signals per cell): 11.3
Substance: ACBD5 (endogenous, COS-7 cells) (natural protein)
